Results reported in IntAct's records for PubMed 25988182.

B1: Regulator of RpoS (Escherichia coli (strain K12)), P0AEV1 (parent)
chain: MTQPLVGKQILIVEDEQVFRSLLDSWFSSLGATTVLAADGVDALELLGGFTPDLMICDIAMPRMNGLKLLEHIRNRGDQTPVLVISATENMADIAKALRLGVEDVLLKPVKDLNRLREMVFACLYPSMFNSRVEEEERLFRDWDAMVDNPAAAAKLLQELQPPVQQVISHCRVNYRQLVAADKPGLVLDIAALSENDLAFYCLDVTRAGHNGVLAALLLRALFNGLLQEQLAHQNQRLPELGALLKQVNHLLRQANLPGQFPLLVGYYHRELKNLILVSAGLNATLNTGEHQVQISNGVPLGTLGNAYLNQLSQRCDAWQCQIWGTGGRLRLMLSAE
partner: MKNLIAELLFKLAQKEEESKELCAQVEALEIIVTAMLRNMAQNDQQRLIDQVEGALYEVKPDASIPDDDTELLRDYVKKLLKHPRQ

Variants of: B1
Settings: with irap_ecoli iraP

| effect of a mutation on the interaction | Variant |
| --- | --- |
| disrupting interaction strength | MTQPLVGKQILIVEDEQVFRSLLDSWFSSLGATTVLAADGVDALELLGGFTPDLMICPIAMPRMNGLKLLEHIRNRGDQTPVLVISATENMADIAKALRLGVEDVLLKPVKDLNRLREMVFACLYPSMFNSRVEEEERLFRDWDAMVDNPAAAAKLLQELQPPVQQVISHCRVNYRQLVAADKPGLVLDIAALSENDLAFYCLDVTRAGHNGVLAALLLRALFNGLLQEQLAHQNQRLPELGALLKQVNHLLRQANLPGQFPLLVGYYHRELKNLILVSAGLNATLNTGEHQVQISNGVPLGTLGNAYLNQLSQRCDAWQCQIWGTGGRLRLMLSAE [D58P] |
| decreasing interaction strength | MTQPLVGKQILIVEDEQVFRSLLDSWFSSLGATTVLAADGVDALELLGGFTPDLMICAIAMPRMNGLKLLEHIRNRGDQTPVLVISATENMADIAKALRLGVEDVLLKPVKDLNRLREMVFACLYPSMFNSRVEEEERLFRDWDAMVDNPAAAAKLLQELQPPVQQVISHCRVNYRQLVAADKPGLVLDIAALSENDLAFYCLDVTRAGHNGVLAALLLRALFNGLLQEQLAHQNQRLPELGALLKQVNHLLRQANLPGQFPLLVGYYHRELKNLILVSAGLNATLNTGEHQVQISNGVPLGTLGNAYLNQLSQRCDAWQCQIWGTGGRLRLMLSAE [D58A] |
